Laboratory results taken from paper doi:10.1101/488536, “The Ca^2+ sensor protein CMI1 fine tunes root development, auxin distribution and responses” (bioRxiv, 2018).

Columns and labels:
[1] = biological target: T1, His6-ICR1 (Arabidopsis, UniProt Q8LE98 1-344); experiment: co-IP; His6-CMI1 and His6-ICR1, 1 μg each, in 300 μL Ca^2+ reaction buffer (20 mM Tris-HCl pH 7.5, 5 mM CaCl2, 0.1 mg/mL BSA, 200 mM NaCl, 1% Triton X-100), RT; anti-CMI1 antibodies and Protein A beads; blot with anti poly-His; conditions: both partners purified
T1 construct: ICR1, Arabidopsis; also called His-ICR1; source: E. coli Rosetta (DE3), purified (Ni-NTA)
T1 sequence (looked up): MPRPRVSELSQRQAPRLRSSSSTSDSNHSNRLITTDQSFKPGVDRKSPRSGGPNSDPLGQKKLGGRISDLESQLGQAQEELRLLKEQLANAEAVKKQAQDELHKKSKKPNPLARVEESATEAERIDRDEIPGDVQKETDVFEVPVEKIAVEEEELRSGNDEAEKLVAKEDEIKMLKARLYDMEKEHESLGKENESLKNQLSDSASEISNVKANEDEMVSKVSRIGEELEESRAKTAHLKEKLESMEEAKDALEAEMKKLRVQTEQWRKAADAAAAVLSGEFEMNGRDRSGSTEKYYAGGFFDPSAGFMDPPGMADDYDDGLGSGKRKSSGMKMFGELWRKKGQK

[2] = biological target: T2, GST-ICR1 (Arabidopsis, UniProt Q8LE98 1-344); experiment: pull-down; GST-ICR1 (1.2 μg) or GST (0.4 μg) on Glutathione sepharose, 0.5 μg His6-CMI1; 20 mM Tris-HCl pH 7.5, 5 mM CaCl2, 0.1 mg/mL BSA, 200 mM NaCl, 1% Triton X-100, RT; wash with 1 M NaCl; conditions: both partners purified
T2 construct: ICR1, Arabidopsis; source: E. coli Rosetta (DE3), purified (Glutathione sepharose)
T2 sequence (looked up): T1 sequence (looked up)

- binding result [1]: binds
- binding result [2]: binds
B1: His6-CMI1 (natural protein, Arabidopsis, UniProt O81831 1-130, looked up)
chain: MASPKSPTRPTQQNPQPNFHDFLPTMAGNLGGEGLIGELCNGFELLMDREKGVITFESLRRNAAAVLGLGDLTDEDVRCMIKEGDFDCDGALNQMEFCVLMFRLSPDLMEASRCLVTEVIEEEFGFTRRH
notes: CMI1, Arabidopsis, At4g27280; also called His-CMI1; source: E. coli Rosetta (DE3), purified (Ni-NTA)
